Data set [1] concerns the molecule itself. Briefly: crystal structure; apo form; space group H3, one monomer per asymmetric unit, trimer by the crystallographic 3-fold axis; sitting drop, 18% PEG 3350, 0.1 M MES pH 6.0, 25 °C.
Data set [2] concerns the molecule itself. Briefly: SEC; 0.5 mg of RidA WT and mutants loaded separately onto a Superdex-75 size-exclusion column; protein standards as size reference. Background: In gel filtration, larger molecules generally elute earlier.

B1: Arabidopsis thaliana RidA, construct starting from S68 (AtRidA-S68), wild type (enzyme, UniProt Q94JQ4 68-187, looked up)
chain: STEKAPAALGPYSQAIKANNLVFLSGVLGLIPETGKFVSESVEDQTEQVLKNMGEILKASGADYSSVVKTTIMLADLADFKTVNEIYAKYFPAPSPARSTYQVAALPLNAKIEIECIATL
notes: Reactive Intermediate Deaminase A (RidA), Arabidopsis thaliana, GenBank AY060547.1, residues S68-L187 (without the predicted chloroplast transit peptide); Residues S80-L187 are resolved in the crystal structures; also called RidA WT; apo-AtRidA; source: E. coli BL21 (DE3), purified (Ni-NTA, PreScission cleavage, Histrap); not shown: His6, N-terminal, cleaved
The term stoichiometry N denotes the number of molecules, sites or subunits per partner or assembly. On to B1, for which the results for the “stoichiometry N” value in data set [1] and in data set [2] were 3 and roughly 3, respectively.

B2: AtRidA-S68 E182A (enzyme, Arabidopsis thaliana, UniProt Q94JQ4 68-187, looked up)
chain: STEKAPAALGPYSQAIKANNLVFLSGVLGLIPETGKFVSESVEDQTEQVLKNMGEILKASGADYSSVVKTTIMLADLADFKTVNEIYAKYFPAPSPARSTYQVAALPLNAKIEIACIATL
notes: Reactive Intermediate Deaminase A (RidA), Arabidopsis thaliana, GenBank AY060547.1, residues S68-L187, made by QuikChange on the RidA-S68/pET28a(+) plasmid; The purification of the mutants is not described separately; probably as for the wild type (tag cleaved); also called RidA-E182A; source: E. coli BL21 (DE3), purified
For the protein B2, the binding result in data set [2] is on record as “binds”.

B3: AtRidA-S68 K136R (enzyme, Arabidopsis thaliana, UniProt Q94JQ4 68-187, looked up)
chain: STEKAPAALGPYSQAIKANNLVFLSGVLGLIPETGKFVSESVEDQTEQVLKNMGEILKASGADYSSVVRTTIMLADLADFKTVNEIYAKYFPAPSPARSTYQVAALPLNAKIEIECIATL
notes: Reactive Intermediate Deaminase A (RidA), Arabidopsis thaliana, GenBank AY060547.1, residues S68-L187, made by QuikChange on the RidA-S68/pET28a(+) plasmid; The purification of the mutants is not described separately; probably as for the wild type (tag cleaved); also called RidA-K136R; source: E. coli BL21 (DE3), purified
Regarding B3, the binding result in data set [2] is recorded as “binds”.

B4: AtRidA-S68 S166A (enzyme, Arabidopsis thaliana, UniProt Q94JQ4 68-187, looked up)
chain: STEKAPAALGPYSQAIKANNLVFLSGVLGLIPETGKFVSESVEDQTEQVLKNMGEILKASGADYSSVVKTTIMLADLADFKTVNEIYAKYFPAPSPARATYQVAALPLNAKIEIECIATL
notes: Reactive Intermediate Deaminase A (RidA), Arabidopsis thaliana, GenBank AY060547.1, residues S68-L187, made by QuikChange on the RidA-S68/pET28a(+) plasmid; The purification of the mutants is not described separately; probably as for the wild type (tag cleaved); also called RidA-S166A; source: E. coli BL21 (DE3), purified
Take B4: in data set [2], the binding result is on record as “binds”.

B5: AtRidA-S68 S80A (enzyme, Arabidopsis thaliana, UniProt Q94JQ4 68-187, looked up)
chain: STEKAPAALGPYAQAIKANNLVFLSGVLGLIPETGKFVSESVEDQTEQVLKNMGEILKASGADYSSVVKTTIMLADLADFKTVNEIYAKYFPAPSPARSTYQVAALPLNAKIEIECIATL
notes: Reactive Intermediate Deaminase A (RidA), Arabidopsis thaliana, GenBank AY060547.1, residues S68-L187, made by QuikChange on the RidA-S68/pET28a(+) plasmid; The purification of the mutants is not described separately; probably as for the wild type (tag cleaved); also called RidA-S80A; source: E. coli BL21 (DE3), purified
With B5, the binding result in data set [2] is on record as “binds”.

B6: AtRidA-S68 S92A (enzyme, Arabidopsis thaliana, UniProt Q94JQ4 68-187, looked up)
chain: STEKAPAALGPYSQAIKANNLVFLAGVLGLIPETGKFVSESVEDQTEQVLKNMGEILKASGADYSSVVKTTIMLADLADFKTVNEIYAKYFPAPSPARSTYQVAALPLNAKIEIECIATL
notes: Reactive Intermediate Deaminase A (RidA), Arabidopsis thaliana, GenBank AY060547.1, residues S68-L187, made by QuikChange on the RidA-S68/pET28a(+) plasmid; The purification of the mutants is not described separately; probably as for the wild type (tag cleaved); also called RidA-S92A; source: E. coli BL21 (DE3), purified
In the case of B6, the binding result in data set [2] is reported as “binds”.

The values are drawn from publication PMC4960622, “Crystal structures of RidA, an important enzyme for the prevention of toxic side products” (Scientific Reports, 2016).
